Measurements from the supplement of paper PMC11246515.
± gives the standard deviation of the averaged measurements.

Experiment: total protein half-life in vivo (active degradation + dilution); higher = more stable protein
[1] = E. coli NCM3722 delta-clpP, growth: N-lim chemostat, doubling time 6 h
[2] = E. coli NCM3722 delta-hslV, growth: N-lim chemostat, doubling time 6 h
[3] = E. coli NCM3722 delta-lon, growth: N-lim chemostat, doubling time 6 h
[4] = E. coli NCM3722 delta-smpB, growth: N-lim chemostat, doubling time 6 h
[5] = wild type E. coli NCM3722, growth: C-lim chemostat, doubling time 3 h
[6] = wild type E. coli NCM3722, growth: C-lim chemostat, doubling time 12 h
[7] = wild type E. coli NCM3722, growth: N-lim chemostat, doubling time 12 h
[8] = wild type E. coli NCM3722, growth: P-lim chemostat, doubling time 12 h
[9] = E. coli NCM3722 delta-clpP delta-lon delta-hslV, growth: N-lim chemostat, doubling time 6 h
[10] = wild type E. coli NCM3722, growth: C-lim chemostat, doubling time 6 h
[11] = wild type E. coli NCM3722, growth: N-lim chemostat, doubling time 6 h
[12] = wild type E. coli NCM3722, growth: P-lim chemostat, doubling time 6 h

**Q.** Which “total protein half-life in vivo” value [1] does the source give for “MLKRFFITGTDTSVGKTVVSRALLQALASQGKTVAGYKPVAKGSKETPEGLRNKDALVLQSVSTIELPYEAVNPIALSEEESSVAHSCPINYTLISNGLANLTEKVDHVVVEGTGGWRSLMNDLRPLSEWVVQEQLPVLMVVGIQEGCINHALLTAQAIANDGLPLIGWVANRINPGLAHYAEIIDVLGKKLPAPLIGELPYLPRAEQRELGQYIRLAMLRSVLAVDRVTV [P0A6E9]” here?
**A.** 5.16 ± 1 h

**Q.** What about the “total protein half-life in vivo” value [2] of the same sequence?
**A.** 2 ± 0.11 h

**Q.** What about the “total protein half-life in vivo” value [3] of the same sequence?
**A.** 2.48 h

**Q.** And the “total protein half-life in vivo” value [4]?
**A.** 2.11 ± 0.046 h

**Q.** What about the “total protein half-life in vivo” value [5] of the same sequence?
**A.** 2.11 ± 0.37 h

**Q.** And the “total protein half-life in vivo” value [6]?
**A.** 4.99 ± 0.23 h

**Q.** And the “total protein half-life in vivo” value [7]?
**A.** 3.5 ± 0.4 h

**Q.** And the “total protein half-life in vivo” value [8]?
**A.** 5.74 ± 0.84 h

**Q.** Which “total protein half-life in vivo” value [9] does the source give for “MMVTVVSNYCQLSQTQLSQTFAEKFTVTEELLQSLKKTALSGDEESIELLHNIALGYDKFGKEAEDILYHIVRTPTNETLSIIRLIKNACLKLYNLAHIATNSPLKSHDSDDLLFKKLFSPSKLMTIIGDEIPLISEKQSLSKVLLNDENNELSDGTNFWDKNRQLTTDEIACYLQKIAANAKNTQVNYPTGLYVPYSTRTHLEDALNENIKSDPSWPNEVQLFPINTGGHWILVSLQKIVNKKNNKLQIKCVIFNSLRALGYDKENSLKRVINSFNSELMGEMSNNNIKVHLNEPEIIFLHADLQQYLSQSCGAFVCMAAQEVIEQRESNSDSAPYTLLKNHADRFKKYSAEEQYEIDFQHRLANRNCYLDKYGDANINHYYRNLEIKHSQPKNRASGKRVS” here?
**A.** 6.83 h

**Q.** What does the source list for “MSLSRTQIVNWLTRCGDIFSTESEYLTGLDREIGDADHGLNMNRGFSKVVEKLPAIADKDIGFILKNTGMTLLSSVGGASGPLFGTFFIRAAQATQARQSLTLEELYQMFRDGADGVISRGKAEPGDKTMCDVWVPVVESLRQSSEQNLSVPVALEAASSIAESAAQSTITMQARKGRASYLGERSIGHQDPGATSVMFMMQMLALAAKE”?
**A.** total protein half-life in vivo [9]: 4.62 ± 0.54 h; total protein half-life in vivo [1]: 4.25 ± 0.72 h; total protein half-life in vivo [2]: 4.36 ± 0.067 h; total protein half-life in vivo [3]: 4.75 ± 0.52 h; total protein half-life in vivo [4]: 4.23 ± 0.14 h; total protein half-life in vivo [5]: 2.93 ± 0.12 h; total protein half-life in vivo [10]: 5.43 ± 0.13 h; total protein half-life in vivo [6]: 9.74 ± 0.25 h; total protein half-life in vivo [11]: 4.432 ± 0.04 h; total protein half-life in vivo [7]: 7.23 ± 0.11 h; total protein half-life in vivo [12]: 4.75 ± 1.6 h; total protein half-life in vivo [8]: 11.8 ± 0.41 h

**Q.** Which “total protein half-life in vivo” value [9] does the source give for “MELSSLTAVSPVDGRYGDKVSALRGIFSEYGLLKFRVQVEVRWLQKLAAHAAIKEVPAFAADAIGYLDAIVASFSEEDAARIKTIERTTNHDVKAVEYFLKEKVAEIPELHAVSEFIHFACTSEDINNLSHALMLKTARDEVILPYWRQLIDGIKDLAVQYRDIPLLSRTHGQPATPSTIGKEMANVAYRMERQYRQLNQVEILGKINGAVGNYNAHIAAYPEVDWHQFSEEFVTSLGIQWNPYTTQIEPHDYIAELFDCVARFNTILIDFDRDVWGYIALNHFKQKTIAGEIGSSTMPHKVNPIDFENSEGNLGLSNAVLQHLASKLPVSRWQRDLTDSTVLRNLGVGIGYALIAYQSTLKGVSKLEVNRDHLLDELDHNWEVLAEPIQTVMRRYGIEKPYEKLKELTRGKRVDAEGMKQFIDGLALPEEEKARLKAMTPANYIGRAITMVDELK [P0AB89]” here?
**A.** 4.77 ± 0.41 h

**Q.** And the “total protein half-life in vivo” value [1]?
**A.** 5.24 ± 0.62 h

**Q.** And the “total protein half-life in vivo” value [2]?
**A.** 5.18 ± 0.54 h

**Q.** And the “total protein half-life in vivo” value [3]?
**A.** 5.11 ± 0.4 h

**Q.** What about the “total protein half-life in vivo” value [4] of the same sequence?
**A.** 4.63 ± 0.12 h

**Q.** And the “total protein half-life in vivo” value [5]?
**A.** 3.01 ± 0.1 h

**Q.** And the “total protein half-life in vivo” value [10]?
**A.** 5.55 ± 0.32 h

**Q.** What about the “total protein half-life in vivo” value [6] of the same sequence?
**A.** 10.5 ± 0.86 h

**Q.** And the “total protein half-life in vivo” value [11]?
**A.** 4.64 ± 0.062 h

**Q.** What about the “total protein half-life in vivo” value [7] of the same sequence?
**A.** 8.57 ± 0.16 h

**Q.** What about the “total protein half-life in vivo” value [12] of the same sequence?
**A.** 5.79 ± 0.6 h

**Q.** And the “total protein half-life in vivo” value [8]?
**A.** 12.25 ± 0.033 h

**Q.** With “MTEQEKTSAVVEETREAVDTTSQPVATEKKSKNNTALILSAVAIAIALAAGIGLYGWGKQQAVNQTATSDALANQLTALQKAQESQKAELEGIIKQQAAQLKQANRQQETLAKQLDEVQQKVATISGSDAKTWLLAQADFLVKLAGRKLWSDQDVTTAAALLKSADASLADMNDPSLITVRRAITDDIASLSAVSQVDYDGIILKLNQLSNQVDNLRLADNDSDGSPMDSDGEELSSSISEWRINLQKSWQNFMDNFITIRRRDDTAVPLLAPNQDIYLRENIRSRLLVAAQAVPRHQEETYRQALENVSTWVRAYYDTDDATTKAFLDEVDQLSQQNISMDLPETLQSQAMLEKLMQTRVRNLLAQPAAGTTEAKPAPAPQADTPAAAPQGE” as the sequence, how does the “total protein half-life in vivo” value [9] read?
**A.** 5.965 ± 0.022 h

**Q.** What about the “total protein half-life in vivo” value [1] of the same sequence?
**A.** 6.63 ± 1.1 h

**Q.** And the “total protein half-life in vivo” value [2]?
**A.** 6.31 ± 0.23 h

**Q.** And the “total protein half-life in vivo” value [3]?
**A.** 6.06 ± 0.28 h

**Q.** What about the “total protein half-life in vivo” value [4] of the same sequence?
**A.** 6.54 ± 0.59 h

**Q.** What about the “total protein half-life in vivo” value [5] of the same sequence?
**A.** 3.15 ± 0.072 h

**Q.** What about the “total protein half-life in vivo” value [10] of the same sequence?
**A.** 5.98 ± 0.23 h

**Q.** And the “total protein half-life in vivo” value [6]?
**A.** 11.3 ± 1.5 h

**Q.** What about the “total protein half-life in vivo” value [11] of the same sequence?
**A.** 6.09 ± 0.16 h

**Q.** What about the “total protein half-life in vivo” value [7] of the same sequence?
**A.** 13.7 ± 0.83 h

**Q.** What about the “total protein half-life in vivo” value [12] of the same sequence?
**A.** 6.17 ± 0.24 h

**Q.** And the “total protein half-life in vivo” value [8]?
**A.** 12.8 ± 1.5 h

**Q.** What does the source list for “MTPTIELICGHRSIRHFTDEPISEAQREAIINSARATSSSSFLQCSSIIRITDKALREELVTLTGGQKHVAQAAEFWVFCADFNRHLQICPDAQLGLAEQLLLGVVDTAMMAQNALIAAESLGLGGVYIGGLRNNIEAVTKLLKLPQHVLPLFGLCLGWPADNPDLKPRLPASILVHENSYQPLDKGALAQYDEQLAEYYLTRGSNNRRDTWSDHIRRTIIKESRPFILDYLHKQGWATR”?
**A.** total protein half-life in vivo [9]: 4.82 ± 1 h; total protein half-life in vivo [1]: 3.94 ± 0.13 h; total protein half-life in vivo [2]: 4.1 ± 0.27 h; total protein half-life in vivo [3]: 4.4 ± 0.54 h; total protein half-life in vivo [4]: 3.98 ± 0.23 h; total protein half-life in vivo [5]: 2.93 ± 0.35 h; total protein half-life in vivo [10]: 4.8 ± 0.82 h; total protein half-life in vivo [6]: 9.24 ± 0.9 h; total protein half-life in vivo [11]: 3.89 ± 0.47 h; total protein half-life in vivo [7]: 7.96 ± 0.79 h; total protein half-life in vivo [12]: 5.01 ± 0.35 h; total protein half-life in vivo [8]: 9.93 ± 2.7 h
